This note sets out measurements from US20220204611A1 (Amgen, published 2022).

Positions count from the first letter of the chain named.

Assay [1] has as its target T1, recombinant soluble human TREM2 protein (human TREM2 ECD-FlagHis) (human, UniProt Q9NZC2 19-174).
T1 sequence: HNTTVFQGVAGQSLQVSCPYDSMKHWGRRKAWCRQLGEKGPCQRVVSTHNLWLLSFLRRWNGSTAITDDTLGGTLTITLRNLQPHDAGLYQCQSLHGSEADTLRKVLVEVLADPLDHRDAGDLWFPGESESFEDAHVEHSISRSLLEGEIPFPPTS
In words: Octet BLI binning; competitor: load Ab 16B8. Summed up:
(§1)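 Anti-human Fc capture of load Ab (5 μg/mL, 2 min); block 100 μg/mL irrelevant hIgG2, 5 min; sandwich Ab 5 μg/mL, 5 min. Buffer Tris pH 7.6/Triton X-100/NaCl/CaCl₂/BSA, 25° C. Binding of sandwich Ab = different epitope bin.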

The target of assay [2] is T1, recombinant soluble human TREM2 protein …. In words: Octet BLI binning; competitor: load Ab 24G6. Summed up:
as §1
In general terms: BLI is a label-free optical method that tracks binding on a fibre tip over time.

The target of assay [3] is T2, soluble human TREM2 protein (TREM2 ECD-huIgG1 Fc fusion protein) (human, UniProt Q9NZC2 19-174, biotinylated).
T2 construct: also called biotinylated soluble human TREM2 protein
T2 sequence: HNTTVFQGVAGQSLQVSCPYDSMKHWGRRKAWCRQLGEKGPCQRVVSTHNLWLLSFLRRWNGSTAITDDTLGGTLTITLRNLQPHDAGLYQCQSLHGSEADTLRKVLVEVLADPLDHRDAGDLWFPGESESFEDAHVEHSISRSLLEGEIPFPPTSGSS
In words: ELISA, hybridoma supernatant on captured biotinylated TREM2 ECD-Fc.

Assay [4] deals with T1, recombinant soluble human TREM2 protein …. Kind of assay: Octet BLI binning; competitor: load Ab 4G10. As for the experimental part:
(§2) Each of sixteen different anti-TREM2 antibodies produced from hybridomas were quantitated and loaded onto one of the anti-human Fc sensors at 5 μg/mL for 2 minutes (“Load Antibody”). The sensor was then blocked with 100 μg/mL of an irrelevant human IgG2 antibody for 5 minutes. […] Next, each of the sixteen different anti-TREM2 antibodies (“Sandwich Antibody”) was added to the sensor at 5 μg/mL and allowed to bind for 5 minutes. All assay buffers contained 10 mM Tris (pH 7.6), 0.1% Triton X-100, 150 mM NaCl, 1 mM CaCl₂, and 1 mg/mL BSA. The assay was conducted at 25° C. Experimental kinetic results were fit to a 1:1 binding model.
(§3) However, if addition of the sandwich antibody produces a binding event, then the sandwich antibody binds to a different epitope on human TREM2 than the load antibody and the two antibodies are categorized into different epitope bins.

The target is the same in assay [5]. Kind of assay: Octet BLI binning; competitor: load Ab 4C5. The protocol: as §2, §3

B1: 6E7 (antibody, human IgG2, V domains shown)
VH: EVQLVQSGAEVKKPGESLKISCKGSGYSFTSYWIAWVRQMPGKGLEWMGIIYPGDSDTRYSPSFQGQVTISADKSISTAYLQWSSLKASDTAMYFCARQRTFYYDSSDYFDYWGQGTLVTVSS
VL: DIQMTQSPSSVSASVGDRVTITCRASQGISSWLAWYQQKPGKAPKLLIYAASSLQNGVPSRFSGSGSGTDFTLTISSLQPEDFATYFCQQADSFPRTFGQGTKLEIK
notes: human IgG2 from hybridoma
For B1, the sandwich binding signal in assay [1] came to 0.429; in assay [2] it was 0.412. Besides, the “OD 450” value in assay [3] was determined as 3.17 OD450.

B2: 10E3 (antibody, human IgG2, V domains shown)
VH: EVQLVQSGAEVKKPGESLMISCKGSGYSFTNYWIGWVRQMPGKGLEWMGIIYPGDSDTRYSPSFQGQVTISADKSISTAYLQWSSLKASDTAMYFCARRRQGIWGDALDIWGQGTLVTVSS
VL: EIVMTQSPATLSVSPGERATLSCRASQSVSSNLAWFQQKPGQAPRLLIYGASTRATGIPARFSVSGSGTEFTLTISSLQSEDFAFYYCLQDNNWPPTFGPGTKVDIK
notes: human IgG2 from hybridoma
Regarding B2, the sandwich binding signal is 0.33 in assay [1], -0.008 in assay [4], 0.317 in assay [2] and 0 in assay [5]. Also, in assay [3], the “OD 450” value was found to be 0.55 OD450.

B3: 13E7 (antibody, human IgG2, V domains shown)
VH: B2 VH with N31S, I110F
VL: B2 VL with F85V
notes: human IgG2 from hybridoma
As for B3, the sandwich binding signal turned out to be 0.329 in assay [1] and 0.338 in assay [2]. Also, the “OD 450” value in assay [3] was 0.73 OD450.

B4: 5E3 (antibody, human IgG2, V domains shown)
VH: QVQLVQSGAEVKKPGASVKVSCKASGYTFTGYYIHWVRQAPGLGLEWMGWINPYSGGTTSAQKFQGRVTMTRDTSISSAYMELSRLRSDDTAVYYCARDGGYLALYGTDVWGQGTTVTVSS
VL: DIQMTQSPSSLSASVGDRVTITCRASQGISNYLAWFQQKPGKAPKSLIYAASSLQSGVPSKFSGSGSGTDFTLTISSLQPEDFATYYCQQYSTYPFTFGPGTKVDIK
notes: human IgG2 from hybridoma
With B4, the sandwich binding signal in assay [1] was -0.047; in assay [2], 0.328. Also, the “OD 450” value in assay [3] was 3.88 OD450.
